Assay: soluble on expression in E. coli; label from the status in PepcDB or PDB records

Row | Sequence | soluble on expression in E. coli
1 | MGSDKIHHHHHHMISDTTIRKLVDYISLNACSVNSSGLYNGKSGISLALFETAKCLQDTEIEDKAFSLFQESLIRKTNDYGFENGMSGIGYVLIYLITNKLIDADFEDLFGDQREAIIKHFENIDKQPDKLLVSYKIIYFLFVLDKLQKQDERIYSIIEKIFQGLELYLSLQFFDWKNIYYINSKDYVLQMYEAYLKLVDFCNYKYFSKSLMDSYVTLYSEGRIASSLVRGYYLHSIITKNNMVGFNDVIRDHIRYGQKNINPAILFLDQKINLTGIIENADENRVKIQRIEMDLFEESLERIKRMVRPNCIHVGYQYGLARYLGFCANKKFPLL | not soluble
2 | MGSDKIHHHHHHMISVCIATYNGEKYLAEQLDSILLQVSEEDELIISDDGSTDHTLEILRTYAANYPQIQLLQGPGQGVIANFAFALTHTKGEVIFLADQDDVWLPNKVTTVTEYFETHPDIQVVISDLKIVDADLQVTNPSYFKFRKVKPGFWRNAIKSGYIGAGMAFRQEMKNVILPIPPEVPMHDMWIGLLAARKKQTGLIKEPLVLYRRHGANVSPIITKTSFQQKLNWRVNLLKALHQRLKEQR | not soluble
3 | MGSDKIHHHHHHMITDENKKLAQWAMDYALKNGCQAAKVLLYSSSNTSFELRDAKMDRLQQASEGGLSLSLYVDGRYGSISTNRLNRKELETFIKNGIDSTRYLAKDEARVLADPSRYYKGGKPDLKLYDAKFASLNPDDKIEMAKAVAEEALGKDERIISVGSSYGDGEDFAYRLISNGFEGETKSTWYSLSADITIRGEGEARPSAYWYESSLYMNDLIKKGIGQKALERVLRKLGQKKVQSGKYTMVVDPMNSSRLLSPMISALNGSALQQKNSFLLNKLNEKIASDRLTLTDEPHLVKASGARYFDNEGIATERRSIFDKGVLNTYFIDTYNAKKMGVDPTISGSSILVMETGDKNLDGLIAGVEKGILVTGFNGGNNNSSTGDFSYGIEGFLIENGKLTQPVSEMNVTGNLITLWNSLVATGNDPRLNSSWRIPSLVFEGVDFSGL | soluble
4 | MGSDKIHHHHHHMITFDEIIPGVTDILKEYSKELDQMAPILVNRDLNGRVRLIIKDDIRGNSHAEGVLDKISKALHQRLGAHGFPPERIVLFETDMQTVLAETPCFPLDGVEGVSVADRLVTESNWSKGIAPTETVPRIVFFSIKGGVGRSTSLAAAAWALAESGKRVLVLDMDLESPGLSSSLLPQDRRPKFGITDWLVEDLVDNGDRVISDMIATSPLSRNGDIYVVPAHGADPGEYIAKLGRVWMPKVNAEGRRILWVQRLQGLLNALEDRLKPDVILLDSRAGIDEVASACVTDLGASSVLLFALDGDQTWSGYRILFRHWRQSGVVRDIRERLQVVGAMIPDVDAAGYYADLLESSWNAFSEELYDEIPAGLSANGEDYWNFDQADEAAPHYPWSIRWNRGFSAMRSLHNRFDTVDAEQVNYVFGDFLTGLAASVQNEEDER | not soluble
5 | MGSDKIHHHHHHMITHRSDLNANYLLNALPRSEWESLAQHVELVRLRAGELLTDSGQRIVHVYFPTTSVVSLLSLLEDGATVEIAAVGNEGLVGVPVVTGGDTMPCRVEVRSPGLAYRIPARLLRSELPRTPTLQRVTLLYVQAMLTQIAQTAACNRHHSLNKQLCRWLLLAVDRLSSNELVITQQVIANMLGVRREGVTEAAGKLEDLGLIHHSRGHITVLDRCGLEKHSCECYKLVKREYDRLLPALAHA | not soluble
6 | MGSDKIHHHHHHMITIKKGLDLPITGEPSREISEHRPAHVALIGYDYVGMKPTMNVKEGDIVAKGQSVFEDKKRAGVIYTAPAAGKVVAIKRGERRVFESLVIAVDPNGAEVEFQRYDSQQLADLDSEVVETQLLASGEWTAFRTRPYSRAPEIGARPHAIFVTAMDTNPLAFDPMLLINEQLQAFNDGLAVLSTLSPKTFVCHHGNSQLTPVAKTAANNVTEYHSFAGKHPAGLAGTHIHFLHPIMRGTSVWTIGYQDVIAIGKLFTSGRLYTRRLLSLAGPAVSNPHVIATERGADIAALTKGNLTAGENRVISGSVLSGRQVFANIAYLGRFDNQVSVLAEGRERPAFHFFTPGANRFSKLPIYISQFFGGKKYNFTTTSNGSPRAMVPIGVYEEVMPQDYLPTQLLRALIVEDIVTAVDLGVLELDEEDLALCTFVSPGKYEFGDILRDNLTRIELEG | not soluble
7 | MGSDKIHHHHHHMITVRDLSWQYEPLVDGGKPVDSLKHVSFDIKSGSFVGVIGPTGAGKSTLCMALAGIIPNLADGTMTGLVEVNGMNTSRHSVSALSERIGYVQQDPEAQLFCASVEDEIAFPLENRGIAPDIIDKQIDVMLDLVGMTGYRKRVPASLSGGQMQRVAIAAALAAEPDVLILDEPTAALDPEGKQEVFDVLERIRQTRSMTVIMAEQDTEHIAYWADQVLFMVNGELVRNGDASLFVREKGLLESSGVQVADDPLPQVKAVQQGKKHKKDKKNQPERSKDVVISLDHVSYQYERGGNASKALDDVTFDIERGSFIGLIGRNGSGKTTLAKHLNGLIRPTQGTVTVDGLDASKHSVGEMAAHVGFVFQNPDHQIFCSTTKEEIAFGPTALGLDGATVFKRVDEMLTLFDLHRYEDVSPATLGYGERRAVALSSVLAMRTPILVLDEPTAGLDHRLAARFLGTIEKLNQRGVTIVMISHDMRAVYRYCTHVLELEDGKVVQYGPIDRSEAAQKQSRTIRKPRKSNGPVSATHVLLKVTKHEEGRH | not soluble
8 | MGSDKIHHHHHHMIYLKIIRGFFSALREHPQSQSIPVIFVSALDETANQIQGLQGGAIDYLVKPVQPDILKLRLANLLATVNLQRDLQANYDNMLELSRLRDCVDELIHHDLKSPLSAISAMLQRLSQDKSCPKGWRSKLTAIHDLTMQSINTVNLSSEIFKIETGRFILKPERFSAHGLVKQVLHSMHVTFHHKQLIAFQFPDEDPNGQFDVLADETLTYSLLLNLIKNAFEASTMRTKVAIHLSIEQGNVVIQIENSGVVPEHIRPRFWDKYVTSQKEEGAGLGTYSACLLAKAQGGTTQLQVDDLQNKTIVTVCLPAAT | not soluble
9 | MGSDKIHHHHHHMKASDFREWVGKITQLSRGQKEQTKHKLGGMVPRIEVAKWLESSFEPICPVCQSNHFYRWGYQAGLQRFYCRMCKHTFTAISGTPLARLRHKDQWLNYSAALIEGLTVRASARQCRIDKNTSFRWRHRFLTLPAAAKANHLEGIVEADETFFPVSCKGQRQLDRPPRKRGKQIHMRGTGKDQVPVLIVRDRSGATADFMLDAIDRKAIEPPLRTVLEKDVIFCSDGAAVYRSVARSLGITHRPVNLAAGVRVIAGVYHIQNVNAYHSRLKQWMKRFHGVATRYLENYLGWFRWLDQQENLSSPIVPLQAALGRENQFQLLTNT | not soluble
10 | MGSDKIHHHHHHMKATLKSLRETKANPAVSIFVKTHREHPANDKDPIALKNQLKVVEERLTNEYDKRTATTILDNIHAKTKEHNHNLNLDTLAIFASTDDVQVIRMPIDTTERVVISHRFATRDLVRDMASAVHYYTLVLTRDKARLIEVSNDRVIREFDLDDTAQNNMENIPFPIDNNGLHTTSDGGSDRSANNDSSALKEFFNQVDKSVQELWGEHKMPLVVVGDTKNIGYYKDVCDRPDNIIATVSNATNLEEGSAQHIINSVQEAVEGYRTSLHQAALGEIDKARGANRLQTDLQEVYRSAFQGVGDTLYVRRGYIQPAKIDEKAQTLSLADDSGAEGITDDAIGEIIEHVIHNGGKAVFMPQDIMSEDQPIALVTRY | not soluble
11 | MGSDKIHHHHHHMKATSSFKGQTTGLYIVPTPIGNLEDMTYRAVRILQESDLVAAEDTRQTMKLFNHFKIETKLVSYHEHNKQVSGARLLADLHAGKQIALVSDAGMPGISDPGSDLIREAIAEDIPVIVLPGANAALTALVASGLATERFLYYGFLPRKKKERREALETVRYEKGSLIFYEAPHRLKEMLGALRDVLGDRQLTLARELTKRYEEYIRGSVTEALEWAEEEVRGEFVVIVEGSTEERPAEEEQKADPLQQIERYIEQGEKPNAALKRVAKERGLDRQELYLRYHES | not soluble
12 | MGSDKIHHHHHHMKDEVLIYSWVGEENIGDELILKSIVRMIEKIDDRLKVNVMGTKPKVINKIHNHLGLNRISTYINWTLKSILRAILKHNIFKAILNILCSNKLIIASGGALSDWNPSSTKTIFFLIDLFYFMNRPICMMGVGAGPILHEKSKKRFYNKLKKLEVITVRDEESYELLKSIGLKNVILTSDSVFNICSIIQNKYPEKDVTEKKISFVLAKLFKDNTKELKEYKEEIIKTINRLKKENWKIKLVPFHYSEDIGFLKSINQKCNVEILNSHDMYDTIGELNNENIIVGMRYHSVIMSLVLGKKVIPLIYHPKVYSVARRFEILDIAENVGNGGNWIGSNISSERLLKNIEKLYKSDENTAKNRGKVLRIVKQNDLNNEILARFLRHSNVLEVVSYNVQRH | not soluble
